Test results from the supplement of paper PMC10567573.

B1: TEKT4 (parent)
chain: LREKLLEAEQSLRNLEDIHMSLEK
B2: BTBD1 (parent)
chain: YGSIHGPTDYQVNIQIIEYEKKQT

Variants of: B1
Assay: protein stability index of a GFP-peptide fusion (GPS, HEK-293T) (PSI 1-6); higher = more stable
Conditions: c terminus: a fixed tail appended
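Further: lentivirally expressed fusions sorted by FACS into six bins by GFP to DsRed ratio, PSI derived from sequencing read proportions per bin multiplied by bin number.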

Variant | protein stability index
E16N | 1.94
E16K | 2.3
E16M | 1.93
R13Q | 3.43
R13P | 2.45
R13T | 2.61
R13V | 2.96
R13M | 2.52
L12T | 3.17
L12D | 5.05
L12E | 4.97
L12G | 3.89
L12A | 3.84
L12K | 3.98
L12H | 4.44
L12V | 3.3
I18N | 3.43
I18G | 2.96
I18T | 3.28
I18D | 3.33
I18Q | 2.62
I18R | 2.63
I18F | 3.02
N14E | 3.99

Variant | protein stability index
N14L | 1.64
N14W | 1.35
N14R | 2.78
R2K | 3.61
R2V | 1.7
R2E | 2.43
R2Y | 2.05
E23F | 2.3
E23S | 2.15
E23D | 2.27
E23H | 2.21
E23C | 4.07
L15G | 2
L15Y | 2.29
L15K | 2.71
S21P | 2.82
S21G | 3.25
S21Q | 1.92
S21N | 2.6
S21H | 1.99
S21W | 2.38
S21C | 1.56
E9D | 3.4
E9K | 3.17

Variant | protein stability index
E9G | 2.89
E9Q | 1.98
D17M | 2.42
D17C | 2.46
D17F | 1.79
D17I | 1.58
E7P | 4.17
E7K | 2.51
E7A | 2.46
E7D | 2.38
A8S | 3
A8N | 4.59
A8V | 2.72
A8H | 3.67
A8C | 1.64
A8K | 4.01
A8P | 4.59
L22K | 3.54
L22R | 3.2
L22V | 2.09
L22G | 2.4
L22I | 2.81
L22N | 3.22
L22F | 1.98

Variant | protein stability index
M20A | 3.28
M20T | 2.98
M20Y | 3.15
M20L | 2.58
S11P | 4.21
S11V | 1.47
K24C | 2.09
K24E | 2.53
K24L | 1.93
K24F | 1.25
K24I | 1.81
K24T | 2.98
L6T | 2.94
L6C | 2.92
L6I | 1.86
L6R | 2.86
Q10F | 2.89
Q10N | 2.76
Q10V | 2.08
Q10G | 2.71
Q10C | 3.01
L5W | 4.04
L5S | 4.68
L5Q | 5.21

Variant | protein stability index
L5V | 2.66
E3D | 2.02
E3L | 2.58
E3Y | 2.15
E3V | 2.01
L1I | 1.82
L1D | 5.15
L1S | 4.82
L1P | 4.12
L1R | 3.52
L1K | 4.27
L1W | 1.92
K4Q | 2.17
K4E | 3.17
K4A | 2.21
H19Q | 3.91
H19C | 2.96
H19K | 2.8
H19L | 1.96
H19D | 3.48

Variants of: B2
Assay: as above
Conditions: c terminus: a fixed tail appended

Variant | protein stability index
I14T | 3.58
I14R | 3.53
I14V | 3.16
I14C | 3.3
I14P | 3.77
I14S | 3.08
I14A | 3.47
I14G | 3.32
I14W | 2.76
I14Q | 3.74
I14L | 3.36
I14Y | 3.35
I14F | 2.92
I14D | 3.75
I14N | 3.98
I14K | 3.75
I14M | 3.37
I14H | 3.48
I14E | 3.46
Q15K | 2.56
Q15A | 1.96
Q15V | 1.6
Q15D | 3.06
Q15P | 3.08
Q15L | 2.09

Variant | protein stability index
Q15C | 1.43
Q15M | 1.96
Q15G | 2.47
Q15N | 2.62
Q15T | 1.81
Q15E | 2.66
Q15F | 2.4
Q15W | 4.17
Q15R | 2.67
Q15H | 2.11
Q15Y | 1.37
Q15S | 2.57
Q15I | 2.74
N13T | 1.82
N13V | 1.87
N13M | 2.74
N13Q | 2.69
N13S | 2.15
N13W | 1.85
N13Y | 2.19
N13P | 3.23
N13R | 2
E20Y | 1.88
E20H | 2.54
E20I | 2.22

Variant | protein stability index
E20C | 1.66
E20K | 2.35
E20G | 2.21
E20V | 1.84
E20S | 2
E20M | 2.33
E20N | 2.43
E20P | 1.72
E20L | 2.25
E20F | 1.84
E20A | 2.39
E20D | 2.59
E20W | 2.15
E20T | 2.25
E20R | 2.08
E20Q | 2.2
E18L | 3.33
E18C | 1.86
E18I | 3.84
E18F | 3.79
E18Q | 2.1
E18T | 2.07
E18R | 1.85
E18Y | 3.61
E18M | 2.44

Variant | protein stability index
E18N | 2.17
E18W | 3.17
E18A | 1.71
E18K | 2.61
E18S | 1.88
E18V | 3.19
E18G | 2.24
E18D | 2.64
E18P | 2.17
E18H | 1.84
K22M | 2.59
K22Y | 2.47
K22L | 2.03
K22Q | 2.75
K22G | 2.24
K22C | 1.52
K22H | 2.03
K22R | 2.14
K22T | 1.93
K22S | 1.78
K22V | 2.54
K22W | 2.5
K22D | 2.77
K22N | 2.5
K22P | 1.72

Variant | protein stability index
K22I | 1.56
K22A | 2.18
K22E | 2.96
K22F | 1.39
I16K | 3.97
I16H | 3.91
I16M | 3.32
I16L | 2.74
I16F | 2.51
I16Y | 2.71
I16E | 3.81
I16Q | 3.9
I16S | 3.58
I16W | 2.48
I16P | 2.9
I16T | 3.58
I16V | 3.15
I16G | 3.31
I16A | 3.8
I16D | 3.61
I16R | 3.46
I16N | 3.55
I16C | 2.96
T24Q | 3.18
T24S | 2.98

Variant | protein stability index
T24L | 2.03
T24N | 2.9
T24M | 2.36
T24D | 3.18
T24I | 2.08
T24E | 3.08
T24Y | 2.21
T24W | 2.23
T24K | 3.05
T24C | 2.16
T24P | 2.3
T24F | 1.84
T24H | 2.9
T24R | 2.69
T24V | 2.43
T24G | 2.57
T24A | 3.1
Q23A | 2.33
Q23G | 2.76
Q23H | 2.31
Q23P | 2.28
Q23T | 2.13
Q23C | 1.8
Q23N | 2.88
Q23S | 2.43

Variant | protein stability index
Q23D | 2.46
Q23K | 2.74
Q23E | 2.72
Q23V | 2.12
Q23F | 1.61
Q23Y | 1.93
Q23M | 2.18
Q23L | 1.6
Q23W | 2.56
Q23I | 1.81
Q23R | 2.51
K21M | 2.02
K21V | 1.59
K21T | 2.24
K21P | 1.95
K21R | 2.25
K21H | 1.83
K21Q | 2.52
K21C | 1.96
K21Y | 1.92
K21D | 2.46
K21N | 2.32
K21F | 3.75
K21E | 2.7
K21G | 2.04

Variant | protein stability index
K21A | 1.82
K21W | 2.8
K21S | 2.13
K21L | 1.65
K21I | 2.42
Y19F | 2.14
Y19M | 3.03
Y19L | 2.54
Y19V | 2.44
Y19C | 2.69
Y19K | 3.38
Y19D | 3.76
Y19H | 3.23
Y19S | 3.56
Y19I | 2.39
Y19A | 3.19
Y19G | 3.36
Y19W | 2.5
Y19E | 4.05
Y19P | 3.67
Y19Q | 3.29
Y19T | 2.92
Y19N | 3.29
Y19R | 3.01
I17H | 3.22

Variant | protein stability index
I17K | 3.53
I17G | 3.31
I17A | 3.32
I17Y | 2.77
I17D | 3.63
I17W | 2.71
I17L | 2.68
I17N | 3.33
I17T | 3.47
I17R | 2.87
I17E | 3.69
I17C | 2.62
I17F | 2.46
I17V | 2.68
I17P | 3.44
I17M | 2.81
I17S | 3.31
I17Q | 3.35
